# Data reported in ChEMBL document CHEMBL1148676, “Fluorogenic ester substrates to assess proteolytic activity” (Bioorg Med Chem Lett, 2006).
# Active and inactive are the calls of the source. The calls are words filed in the database; no cut-off is given here.
# Experiments:
# [1] = target: Cathepsin B (Homo sapiens) (UniProt P07858); assay: (§1) Affinity to cathepsin B
# [2] = test system: CC[C@H](NC(=O)OC(C)(C)C)C(=O)Oc1ccc2c(c1)Oc1cc(OC)ccc1C21OC(=O)c2ccccc21; assay: as §1; conditions: Homo sapiens
# [3] = test system: COc1ccc2c(c1)Oc1cc(OC(=O)[C@H](C)NC(=O)OC(C)(C)C)ccc1C21OC(=O)c2ccccc21; assay: as §1; conditions: Homo sapiens
# [4] = test system: COc1ccc2c(c1)Oc1cc(OC(=O)[C@H](CC(C)C)NC(=O)OC(C)(C)C)ccc1C21OC(=O)c2ccccc21; assay: as §1; conditions: Homo sapiens
# [5] = test system: COc1ccc2c(c1)Oc1cc(OC(=O)[C@H](C)NC(=O)OCC3c4ccccc4-c4ccccc43)ccc1C21OC(=O)c2ccccc21; assay: as §1; conditions: Homo sapiens
# [6] = test system: COc1ccc2c(c1)Oc1cc(OC(=O)CNC(=O)OCC3c4ccccc4-c4ccccc43)ccc1C21OC(=O)c2ccccc21; assay: as §1; conditions: Homo sapiens
# [7] = test system: CC[C@H](NC(=O)OCC1c2ccccc2-c2ccccc21)C(=O)Oc1ccc2c(c1)Oc1cc(OC)ccc1C21OC(=O)c2ccccc21; assay: as §1; conditions: Homo sapiens
compound,measurement,setting,value
COc1ccc2c(c1)Oc1cc(OC(C)=O)ccc1C21OC(=O)c2ccccc21 (centres undefined),Activity,[1],inactive
Cathepsin B (Homo sapiens) (from UniProt P07858),Km,[2],2.2 µM
same,Km,[3],4.5 µM
same,Km,[4],2.7 µM
same,Km,[5],7.6 µM
same,Km,[6],7.9 µM
same,Km,[7],7.2 µM
COc1ccc2c(c1)Oc1cc(OS(=O)(=O)c3ccc(C)cc3)ccc1C21OC(=O)c2ccccc21 (centres undefined),Activity,[1],inactive
COc1ccc2c(c1)Oc1cc(OS(=O)(=O)c3ccc([N+](=O)[O-])cc3)ccc1C21OC(=O)c2ccccc21 (centres undefined),Activity,[1],inactive
